Measurements published in US20220177580A1.

Molecular target: huFcγRIIa-131H (His-tagged, soluble, captured for SPR) (human) (UniProt P12318)
Experiment: SPR, His-tagged FcγR captured by anti-His antibody, antibody injected

huFcγRIIa-131H (His-tagged, soluble, captured for SPR) (human), sequence (P12318 34-217 limits assumed): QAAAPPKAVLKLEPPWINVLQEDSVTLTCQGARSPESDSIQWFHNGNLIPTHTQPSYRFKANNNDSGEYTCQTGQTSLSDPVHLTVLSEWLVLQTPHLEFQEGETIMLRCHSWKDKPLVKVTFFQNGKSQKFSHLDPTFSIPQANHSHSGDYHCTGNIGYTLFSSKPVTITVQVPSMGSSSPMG

Kd: 25 µM
Substance: huIgG2 control (antibody)
